# Laboratory results as given in US20100003258A1 (AVEO PHARMACEUTICALS, published 2010).
# T1: recombinant human FGFR3 IIIc Fc fusion protein (human, UniProt P22607 23-375)
# T1 construct: Bought reagent; also called rhFGFR3 IIIc Fc; not shown: Fc fragment (removable by Factor Xa)
# T1 sequence (looked up): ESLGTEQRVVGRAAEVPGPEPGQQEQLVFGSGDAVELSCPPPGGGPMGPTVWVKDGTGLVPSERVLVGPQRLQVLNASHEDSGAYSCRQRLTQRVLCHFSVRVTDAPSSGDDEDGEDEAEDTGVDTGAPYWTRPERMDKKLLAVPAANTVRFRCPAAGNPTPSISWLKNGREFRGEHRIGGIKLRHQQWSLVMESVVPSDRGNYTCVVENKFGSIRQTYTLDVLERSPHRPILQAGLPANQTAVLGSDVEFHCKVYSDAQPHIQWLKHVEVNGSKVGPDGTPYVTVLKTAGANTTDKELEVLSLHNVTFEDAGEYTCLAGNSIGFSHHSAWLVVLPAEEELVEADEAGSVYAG
# Target: T1, recombinant human FGFR3 IIIc Fc fusion …
# Experiment: kinetic exclusion assay (KinExA), antibody and rhFGFR3 IIIc Fc in solution, room temperature
# Method: The binding affinities of monoclonal 15D8, chimeric 15D8, and humanized 15D8 antibodies for recombinant human FGFR3 IIIc Fc fusion protein was measured using a kinetic exclusion assay, KinExA® technology (Sapidyne Instruments, Inc.). First, beads were prepared for the purpose of detecting anti-FGFR3 antibody that is unbound to FGFR3 IIIc Fc. This was done by adding 1 ml recombinant human FGFR3IIIc Fc (R&D Systems, Inc.) 10 ug/ml in PBS to 200 mg polymethyl methacrylate (PMMA) hard beads. The suspension was mixed and rotated for two hours at room temperature. Next, the mixture was centrifuged and supernatant was discarded. The bead pellet was rinsed once with 1 ml BSA 10 mg/ml in PBS by incubation for 1 hour at room temperature with rotation. The beads were resuspended in 27 ml PBS with 0.02% NaN₃. Next, a fixed concentration of anti-FGFR3 antibody (0.5 nM) was incubated in solution with a series of FGFR3 IIIc Fc concentrations (started with 50 nM (in PBS BSA (1 mg/ml)) and serially diluted 1:2 in PBS BSA(1 mg/ml) to obtain 50 to 0.0122 nM FGFR3 III Fc) at room temperature for at least 4 hours to allow equilibrium to be reached. By measuring the amount of anti-FGFR3 antibody that is not bound to FGFR3 IIIc Fc, the KD was determined. Unbound anti-FGFR3 antibody was detected by allowing the anti-FGFR3 antibody/FGFR3 IIIc Fc solution to flow through the FGFR3 IIIc Fc PMMA beads. The anti-FGFR3 antibody captured by these beads was then detected with Cy5-conjugated anti-human secondary antibody 0.3 ug/ml (Jackson ImmunoResearch) or Cy5-conjugated anti-mouse secondary antibody (Jackson ImmunoResearch) 0.5 ug/ml in PBS BSA 1 mg/ml. The detected signal for captured anti-FGFR3 antibody is directly proportional to the remaining free binding sites, thus allowing KD determination. The experiments were repeated, varying the concentrations of anti-FGFR3 antibody or FGFR3 III Fc used in solution, and the KD was calculated with the KinExA® software using n-curve analysis.
row,Kd,Binder
1,0.0772 nM,"Humanized 15D8 (antibody, human IgG1, kappa, V domains shown, Humanized variable regions with human IgG1 and human kappa constant regions; made in 293T cells; also called Hu15D8; humanized 15D8 antibody) VH: EVQLVQSGAEVKKPGESLKISCKGSGYSFTSYNMYWVRQMPGKGLEWMGYIDPYNGGTSYNQKFKGKATLTVDKSISTAYLQWSSLKASDTAMYYCAREGGNYEAWFAYWGQGTLVTVSS VL: DIQLTQSPSSLSASVGDRVTITCSASSSVSYMYWFQQKPGKAPKPLIYLTSYLASGVPSRFSGSGSGTDFTLTISSLQPEDFATYYCQQWSSYPLTFGGGTKVEIKR"
2,0.0503 nM,"Chimeric 15D8 (antibody, human IgG1, kappa, Mouse variable regions with human IgG1 and human kappa constant regions; made in 293T cells; also called chimeric 15D8 antibody) heavy: not shown light: QIVLTQSPALMSASPGEKVTMTCSASSSVSYMYWYQQKPRSSPKPWIYLTSYLASGVPARFSGSGSGTSYSLTISSMEAEDAATYYCQQWSSYPLTFGAGTKLELKRTVAAPSVFIFPPSDEQLKSGTASVVCLLNNFYPREAKVQWKVDNALQSGNSQESVTEQDSKDSTYSLSSTLTLSKADYEKHKVYACEVTHQGLSSPVTKSFNRGEC"
